In experiment [1] the target is W74R hNPR1 mutant in the presence of ANP (human) (UniProt P01160). Briefly: ELISA, 1 µM IgG. For orientation: In an ELISA, binding on a coated surface is turned into a signal by an enzyme label.
Experiment [2] has as its target constitutively active human NPR1 mutant (W74R) (human) (UniProt P16066). Nature of the experiment: ELISA, 1 µM IgG.
Experiment [3] deals with T1, rat NPR1 (rNPR1) (rat, UniProt P18910 29-469, limits assumed).
T1 construct: Soluble antigen
T1 sequence: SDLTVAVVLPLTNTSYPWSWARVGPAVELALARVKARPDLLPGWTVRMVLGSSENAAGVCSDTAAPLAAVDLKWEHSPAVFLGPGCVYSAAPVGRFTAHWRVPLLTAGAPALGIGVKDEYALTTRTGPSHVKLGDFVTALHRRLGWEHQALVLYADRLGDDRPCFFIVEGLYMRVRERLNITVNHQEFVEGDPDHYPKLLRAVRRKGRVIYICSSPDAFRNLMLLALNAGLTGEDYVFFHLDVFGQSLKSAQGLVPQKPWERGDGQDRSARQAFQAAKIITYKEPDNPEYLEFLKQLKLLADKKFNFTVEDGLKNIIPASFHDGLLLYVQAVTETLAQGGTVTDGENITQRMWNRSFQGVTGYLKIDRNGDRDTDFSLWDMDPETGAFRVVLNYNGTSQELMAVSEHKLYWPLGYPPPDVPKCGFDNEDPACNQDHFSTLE
Briefly: ELISA, 1 µM IgG. Set-up: unit not given here.

The target in experiment [4] is T2, human NPR3 (counter target) (human, UniProt P17342 27-481, limits assumed).
T2 construct: Pannings used hNPR3-hFc; also called hNPR3; hNPR3-hFc
T2 sequence (looked up): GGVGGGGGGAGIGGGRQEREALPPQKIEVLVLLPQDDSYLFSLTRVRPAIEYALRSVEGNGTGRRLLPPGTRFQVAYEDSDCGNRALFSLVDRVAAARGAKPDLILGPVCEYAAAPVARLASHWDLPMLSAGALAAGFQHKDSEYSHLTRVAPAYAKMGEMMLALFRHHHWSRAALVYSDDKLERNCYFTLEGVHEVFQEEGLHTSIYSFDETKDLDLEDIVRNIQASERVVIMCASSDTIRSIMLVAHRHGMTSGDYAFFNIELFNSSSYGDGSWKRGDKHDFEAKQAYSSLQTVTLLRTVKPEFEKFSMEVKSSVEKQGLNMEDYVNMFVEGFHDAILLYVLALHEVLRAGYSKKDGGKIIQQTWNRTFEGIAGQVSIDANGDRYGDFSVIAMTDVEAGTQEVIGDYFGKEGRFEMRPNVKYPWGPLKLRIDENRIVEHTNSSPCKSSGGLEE
Nature of the experiment: ELISA, 1 µM IgG. Set-up: unit not given here.

The target of experiment [5] is T3, human NPR1 on CHO-K1 cells (human, UniProt P16066 33-1061).
T3 sequence: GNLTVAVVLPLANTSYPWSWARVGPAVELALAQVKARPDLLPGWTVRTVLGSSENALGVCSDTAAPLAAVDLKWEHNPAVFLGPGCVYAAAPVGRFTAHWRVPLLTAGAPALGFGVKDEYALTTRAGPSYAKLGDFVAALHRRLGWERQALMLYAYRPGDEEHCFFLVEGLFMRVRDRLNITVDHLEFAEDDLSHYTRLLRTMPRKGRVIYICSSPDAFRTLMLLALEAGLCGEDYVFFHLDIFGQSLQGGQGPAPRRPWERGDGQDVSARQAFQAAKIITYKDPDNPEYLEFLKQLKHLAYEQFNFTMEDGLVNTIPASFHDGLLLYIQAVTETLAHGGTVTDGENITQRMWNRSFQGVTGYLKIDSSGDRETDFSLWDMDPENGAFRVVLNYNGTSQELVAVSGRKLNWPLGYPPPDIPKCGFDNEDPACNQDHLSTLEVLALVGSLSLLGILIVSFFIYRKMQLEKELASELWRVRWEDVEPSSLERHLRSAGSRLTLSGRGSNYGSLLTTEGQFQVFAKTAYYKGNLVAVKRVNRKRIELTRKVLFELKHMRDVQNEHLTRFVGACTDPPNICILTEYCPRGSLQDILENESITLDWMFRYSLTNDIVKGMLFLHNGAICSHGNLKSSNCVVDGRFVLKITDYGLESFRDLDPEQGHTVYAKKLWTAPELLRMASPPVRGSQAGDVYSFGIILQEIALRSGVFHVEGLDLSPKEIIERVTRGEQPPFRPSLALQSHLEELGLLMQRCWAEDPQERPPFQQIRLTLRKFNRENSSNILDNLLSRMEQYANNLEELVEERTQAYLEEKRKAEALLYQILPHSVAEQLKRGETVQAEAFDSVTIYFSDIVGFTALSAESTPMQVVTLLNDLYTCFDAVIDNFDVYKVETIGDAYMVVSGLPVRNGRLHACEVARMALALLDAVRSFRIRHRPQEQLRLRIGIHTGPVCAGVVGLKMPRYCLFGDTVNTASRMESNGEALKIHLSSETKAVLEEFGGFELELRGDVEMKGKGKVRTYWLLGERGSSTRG
Nature of the experiment: cell-based or functional assay.

The target in experiment [6] is T4, human NPR1 on CHO-K1 cells in the presence of ANP (human, UniProt P01160 124-151).
T4 construct: also called hNPR1 CHO K1 + 100 nM ANP
T4 sequence: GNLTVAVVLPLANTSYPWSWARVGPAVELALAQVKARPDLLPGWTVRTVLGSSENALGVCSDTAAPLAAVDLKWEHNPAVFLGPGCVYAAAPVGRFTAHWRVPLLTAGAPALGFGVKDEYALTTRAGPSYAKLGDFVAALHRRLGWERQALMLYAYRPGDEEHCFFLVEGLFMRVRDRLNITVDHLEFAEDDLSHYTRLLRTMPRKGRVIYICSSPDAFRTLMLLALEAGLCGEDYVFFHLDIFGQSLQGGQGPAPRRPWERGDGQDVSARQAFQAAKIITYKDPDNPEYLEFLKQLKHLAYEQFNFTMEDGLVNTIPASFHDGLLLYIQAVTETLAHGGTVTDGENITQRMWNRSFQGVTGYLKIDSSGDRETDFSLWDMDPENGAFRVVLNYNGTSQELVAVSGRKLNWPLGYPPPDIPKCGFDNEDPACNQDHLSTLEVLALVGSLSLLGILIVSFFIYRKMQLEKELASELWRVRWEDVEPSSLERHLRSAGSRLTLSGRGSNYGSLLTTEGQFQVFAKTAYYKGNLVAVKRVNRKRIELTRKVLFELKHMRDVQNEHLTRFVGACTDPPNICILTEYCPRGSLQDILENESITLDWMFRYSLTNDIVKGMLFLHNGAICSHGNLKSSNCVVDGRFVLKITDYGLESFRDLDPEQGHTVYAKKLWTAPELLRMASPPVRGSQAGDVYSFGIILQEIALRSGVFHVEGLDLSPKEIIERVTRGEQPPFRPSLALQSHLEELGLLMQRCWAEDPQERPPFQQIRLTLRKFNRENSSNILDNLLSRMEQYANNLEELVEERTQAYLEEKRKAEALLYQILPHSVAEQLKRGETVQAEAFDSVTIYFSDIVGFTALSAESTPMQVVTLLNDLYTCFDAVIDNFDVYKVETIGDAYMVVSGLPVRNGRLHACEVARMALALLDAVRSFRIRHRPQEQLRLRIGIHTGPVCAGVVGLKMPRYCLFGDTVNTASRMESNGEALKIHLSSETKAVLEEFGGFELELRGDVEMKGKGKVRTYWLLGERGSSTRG
T4 sequence (peptide): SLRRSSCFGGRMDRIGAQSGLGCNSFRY
Nature of the experiment: flow cytometry, hNPR1 CHO-K1 cells, IgG. In general terms: A flow cytometer gives signals particle by particle.

Experiment [7] concerns the target T3, human NPR1 on CHO-K1 cells. Nature of the experiment: flow cytometry, hNPR1 CHO-K1 cells, IgG.
In experiment [8] the target is constitutively active human NPR1 mutant (W74R) (human) (UniProt P16066). Nature of the experiment: ELISA, IgG titrated on coated antigen, fluorescence [Cont.].

The source of these data is patent US20240052042A1 (Novartis, published 2024).

B1: YY06 (IgG format) (antibody, V domains shown)
VH: EVQLLESGGGLVQPGGSLRLSCAASGFTFSSYAISWVRQAPGKGLEWVSAISGSGGSTYYAESVKGRFTISRDNSKNTLYLQMNSLRAEDTAVYYCARPYLGDRRSYGFDHWGQGTLVTVSS
VL: QSALTQPASVSGSPGQSITISCTGTSSDVGSYNLVSWYQQHPGKAPKLMIYEGSKRPSGVSNRFSGSKSGNTASLTISGLQAEDEADYYCSSYGFHIVVVVFGGGTKLTVLG
notes: also called YY06_LALA
Regarding B1, the ELISA binding at 1 µM IgG in experiment [1] came to 86; in experiment [2] it was 83; in experiment [3], 3; in experiment [4] it was 6. Moreover, the “cGMP conc [nM] at 1 µM IgG, +0.075 nM ANP” value in experiment [5] was 15 nM. Also, in experiment [5], the “cGMP conc [nM] at 1 µM IgG, without ANP” value turned out to be 12 nM. In addition, the figures for the “flow cytometry S/BG at 1 µM IgG” value in experiment [6] and in experiment [7] were 18 S/BG and 26 S/BG, respectively. The same molecule came in with an EC50 (read off the curve) in experiment [8] of 5 nM.

B2: YY07 (IgG format) (antibody, V domains shown)
VH: EVQLVQSGAEVKKPGESLKISCKGSGYSFTSYWISWVRQMPGKGLEWMGIIYPGTSYTRYSPSFQGQVTISADKSISTAYLQWSSLKASDTAMYYCARGSLPGLLGFDHWGQGTLVTVSS
VL: QSVLTQPPSVSGAPGQRVTISCTGSSSNIGAGYDVHWYQQLPGTAPKLLIYGNSNRPNGVPDRFSGSKSGTSASLAITGLQAEDEADYYCQSYDSPTSSSVFGGGTKLTVLG
notes: also called YY07_LALA
Turning to B2, the ELISA binding at 1 µM IgG in experiment [1] turned out to be 20; in experiment [2], 53; in experiment [3], 3; in experiment [4] it was 6. The “cGMP conc [nM] at 1 µM IgG, +0.075 nM ANP” value in experiment [5] was determined as 9 nM. The “cGMP conc [nM] at 1 µM IgG, without ANP” value in experiment [5] turned out to be 4 nM. Also, the results for the “flow cytometry S/BG at 1 µM IgG” value in experiment [6] and in experiment [7] were 44 S/BG and 8 S/BG, respectively. In experiment [8], this molecule gave a concentration giving a half-maximal response (EC50 (read off the curve)) of 2 nM.

The term EC50 (read off the curve) denotes the concentration giving half of the maximal effect.
